In the supplement of paper PMC9170038:

Test system: MS2 coat protein
Test: apparent KD of MS2 coat protein; designed switch direction (-1 OFF switch, 1 ON switch): -1; higher = weaker reporter binding
How it was run: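 Apparent KD, taken as the median over clusters for each design, was obtained by curve-fitting normalised cluster fluorescence. Designed RNA switches had been transcribed on Illumina chips by stalled E. coli RNA polymerase and titrated with SNAP-549-labelled MS2 coat protein, doubling from 0.7 or 1.5 nM to 3 µM.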

[1] = input ligand: microRNA oligo, concentration not stated
[2] = Eterna round: R95, input ligand: microRNA oligo, concentration not stated
[3] = Eterna round: R95, input ligand: FMN 200 uM
[4] = Eterna round: R95, input ligand: none

Sequence	apparent KD of MS2 coat protein (input ligand: FMN 200 uM)	apparent KD of MS2 coat protein [1]	apparent KD of MS2 coat protein (input ligand: none)	apparent KD of MS2 coat protein [2]	apparent KD of MS2 coat protein [3]	apparent KD of MS2 coat protein [4]
GUCAGCUCGUCAGGAUAUAUAUACAUGAGGAUCACCCAUGUAAGAUCAGGCUUCGGCCAAUGUAUAUAGAAGGGACGAGCUGAC [ENG2/11-B1] (Eterna round: R96, puzzle: Exclusion NG 2)	500 nM	691 nM	716 nM			
GCUAGGAGUGUGAGGAUAUGCUGUUCCUUGGAACAGCAGAAGGCACAUGAGGAUCACCCAUGUGAAGACCUAGC [Mat - Exclusion 4 - JL Mod - D3] (Eterna round: R97, puzzle: Brourd's mod of Exclusion 4)	149 nM		24.5 nM			
AAGGAUAGAGGAUAUACAUAGAUACAGAUUCAUGUGGUCCUACAUGAGGAUCACCCAUGUAGAAGGCUAUCCUA [Fiskers Ex 2 - 14] (puzzle: Exclusion 2)				169 nM		
CUGCUCCGUGUAGGAUAUGCAUACAACCAAUAUGCAGAAGGACAUGAGGAUCACCCAUGUAUGUUAUUAUCACGUGAAGCGUCC [Design 20] (Eterna round: R96, puzzle: Exclusion NG 1)		16.8 nM				
GGGAUGUCAGGAUAUACAUGAGGAUCACCCAUGUAGAGAUAAGAUAGGGAAAGAGUAGGUAGAAGGGACGAGAG [JR_Exclu3_Sub044] (puzzle: Exclusion 3)				19.9 nM	22 nM	24.5 nM
GGUUCGUGAGGAUAUGUGGCUUCGAUCGUGCGAAGAAGGCUACAGAAGGCACAUGAGGAUCACCCAUGUUCGUC [salish99_ex4_r4_228] (Eterna round: R97, puzzle: Exclusion 4)	241 nM		62.1 nM			
GCCGUAAAUGUGAGGAUAUACCUAUGGAUACAUAGGUAGAAGGCACAUGAGGAUCACCCAUGUUCUUAAUCGGC [Eli BMX r4m2] (Eterna round: R97, puzzle: Brourd's mod of Exclusion 4)	567 nM		185 nM			
GCUUAUAGAGGAUAUACAGAUUAUUACAUGAGGAUCACCCAUGUUCUUCAAUGUAUAUAUGUAGAAGGCUAAGGAG [Mat - Exclusion 5 - JL Mod - D11] (Eterna round: R97, puzzle: Exclusion 5)	175 nM		63.2 nM			
AAAUUGUGAGGAUAUUCGUAGUACACGGAGACGUGUAUUACGGAGAAGGCACAUGAGGAUCACCCAUGUUCCUU [jl-ex4-13 Eli mod] (Eterna round: R97, puzzle: Exclusion 4)	103 nM		19.1 nM			
AAGGCGCGCGUAGGAUAUCACCGCAAAAGUCGAUGAGAAGGGCGAGUGCAUGGUGUCCUAACUUGAGGAUCACCCAAGUAAAGA [Mutated MS2 EX1.22] (Eterna round: R96, puzzle: Exclusion NG 1)	67.9 nM	41.5 nM	56.5 nM			
CCUCUACAUGAGGAUCACCCAUGUGAGGAUAUCAAAGUCAGGGCGGCGCCCUGACUCAUGAGAAGGUGCAUGAA [EX1 A.16] (Eterna round: R97, puzzle: Exclusion 1)	31.8 nM		22.4 nM			
CCGCUCCGUGUAGGAUAUUGGCCUGCUCUGGGUCGAGAAGGACAUGAGGAUCACCCAUGUAUGUUAUUAUCACGCGUGGCGCAU [Design 80] (Eterna round: R96, puzzle: Exclusion NG 1)	41.8 nM	18.9 nM	29.3 nM			
CUGGUGUGAGGAUAUCAGGGCGCGCCCAAGGGCACGCCAAAUGAGAAGGCACAUGAGGAUCACCCAUGUGGGAC [Erzala] (puzzle: Exclusion 4)				31.4 nM	45.6 nM	35.3 nM
AAAUGACAUUAGGAUAUGUAACGCGGUUGCCGCACAGAAGGGAUGACUUGAGGAUCACCCAAGUGACCCAAGGA [Tixebion] (Eterna round: R97, puzzle: Exclusion 6)	26.4 nM		28.2 nM			
GUAGCUCUCGAGGAUAUGGAUAGAAAAGUUAGUCCAGAAGGCGAGACAUGAGGAUCACCCAUGUUGGACUCUGC [Eternabot (L2) Solution 77] (Eterna round: R97, puzzle: Exclusion 6)	118 nM		60.4 nM			
CUGAGUAGAGGAUAUACAUGAGGAUCACCCAUGUAAAGUAGCUUGCGUACAGGCAGAUGUAGAAGGUUAUUCGG [Mod of JL 13 - Jieux - Exclusion 3] (Eterna round: R97, puzzle: Exclusion 3)	53.1 nM		50.9 nM			
UAUUAAACAUAGGAUAUCGAAUAUAUCAUUUAACGAGAAGGAUGAACAUGAGGAUCACCCAUGUGGUAUCAUGG [Mat - Exclusion 6 - JL Mod - D13] (puzzle: Exclusion 6)				269 nM	196 nM	410 nM
AAAACAAAAGGAUAUACAUGAGGAUCACCCAUGUGGCAUAAAAUCGCCGCUAAACCAUGUAGAAGGUUUGCGAA [EX3 A.6] (Eterna round: R97, puzzle: Exclusion 3)	25.5 nM		19.6 nM			

Sequence	apparent KD of MS2 coat protein (input ligand: FMN 200 uM)	apparent KD of MS2 coat protein [1]	apparent KD of MS2 coat protein (input ligand: none)	apparent KD of MS2 coat protein [2]	apparent KD of MS2 coat protein [3]	apparent KD of MS2 coat protein [4]
CAGGAUAGAGGAUAUACAUAGAUACAGAUUCAUGUGAUCCUACAUGAGGAUCACCCAUGUAGAAGGCUAUCCUG [Fiskers Ex 2 - 21] (puzzle: Exclusion 2)				240 nM		
CCAUGUUAGCAGGAUAUGCAAUAAAUCUUUUAAGCAGAAGGGCUUACAUGAGGAUCACCCAUGUAUAAAGUCAA [JR_E6_Sub079] (puzzle: Exclusion 6)				19.9 nM		
AAAUAACAAGCAAGAUCCUACAUGAGGAUCACCCAUGUGCUCGUCUUAAUAAGUACUAUCACGAAAGUGAUAGUACA [Mat - Sensor v3 - turn-off var 1 - Eli Mod - D60] (puzzle: Sensor v3, turn-off variant 1)				383 nM	383 nM	437 nM
CUGUACUGAGGAUAUACAUGAGGAUCACCCAUGUUCUUCAGCUAGGAAACUAGCAAAGGUAGAAGGCAGUACAG [Mat - Exclusion 3 - Eli Mod - D69] (Eterna round: R97, puzzle: Exclusion 3)	784 nM		34.3 nM			
GAUUAUGCGAGCUUUAGGGACAUGAGGAUCACCCAUGUUCGUCUUAUUGGUCUAGAUACACUAACAUACCUAAAUCU [JMF 12] (puzzle: Sensor v3, turn-off variant 1)				21.4 nM	15.2 nM	17.4 nM
UGUAACCUAGGAUAUACAUGAGGAUCACCCAUGUAAUGUAGUAUAGUGUGUGUAAGGUGUAGAAGGAGGGAUGU [LRO-Excl05-22-Smart Aleck] (Eterna round: R97, puzzle: Exclusion 3)	9.76 nM		62.9 nM			
GAGGAUAGAGGAUAUGCAUAGAUACGGAUUCGUGUAGUACUACAUGAGGAUCACCCAUGUAGAAGGCUGUCCAG [Mat - Exclusion 2 - Mod of JL - D75] (puzzle: Exclusion 2)				12.8 nM		
AGAUCACAUGAGGAUCACCCAUGUCAGGAUAUCAUCAUUGAAGCUUCGGCUUCAAUGAUGAGAAGGGACAUAAU [E1/2-B1] (Eterna round: R97, puzzle: Exclusion 1)	297 nM		598 nM			
GCGAGCAGACGGAGAUCCAACAUGAGGAUCACCCAUGUCUCGCAAGCUUUUUGCUUGUCUUAUCCUCCUCUGUUUAG [Design #8] (Eterna round: R97, puzzle: Sensor, turn-off variant 1)	81.3 nM		80.4 nM			
AGCUAGUCAGGAUAUACGCAAACGAACGAAGCAGUGAAGGGACAUGAGGAUCACCCAUGUAGAAGGGACUAGCA [Diamond 30] (Eterna round: R96, puzzle: Exclusion 2)	121 nM	17.4 nM	24.9 nM			
GGAUCGAGUGUGAGGAUAUACCUAUGGAAACAUAGGUAGAAGGCACAUGAGGAUCACCCAUGUGUUCCCGGUCC [Mat - Exclusion 4 - Eli Mod - D16] (Eterna round: R97, puzzle: Brourd's mod of Exclusion 4)	485 nM		50.8 nM			
CGCGCCUUUGUCAGGAUAUUCGGGCGAGCCCGGCCGGAGAAGGGACUUGAGGAUCACCCAAGUGACGCGAAAAC [Beenusre] (Eterna round: R97, puzzle: Brourd's mod of Exclusion 4)	20.8 nM		20.6 nM			
UUCUUGGCAGGAUAUGCUCUCUUAGACAUGAGGAUCACCCAUGUGUUCAUUCUUUCUUUUGCAGAAGGGCCUUAAU [JR_E5_Sub045] (puzzle: Exclusion 5)				52.6 nM		
GCGUGGCGUAAGGAUAUCCAUACGGUAUAACCGGGAGAAGGUACGACAUGAGGAUCACCCAUGUGGCCUGGAAA [Sorimaat] (Eterna round: R97, puzzle: Exclusion 6)	64.4 nM		22.2 nM			
AACUAGUCAGGAUAUACAUGAGGAUCACCCAUGUAAACUUUUAGUUUAAUUUGAAUGUGUAGAAGGGACAUAAA [Ex3 #43] (Eterna round: R97, puzzle: Exclusion 3)	20.7 nM		20.3 nM			
CCUAGUUGGUAAGGAUAUCCUACACUAUUCUGACCCGUGCAAGCUACAUGAGGAUCACCCAUGUGGGAGAAGGUGCGUCAACGC [Design 11] (Eterna round: R96, puzzle: Exclusion NG 2)	29.1 nM	19.7 nM	32.9 nM			
AGUACUAACACGAUAGUGUUAGUACUAUAAGCUUGUGUUACAUGAGGAUCACCCAUGUCCUCAUAAGCUCGUCUUGA [Mat - Sensor v3 - Turn-off var 2 - D92] (puzzle: Sensor v3, turn-off variant 2)				467 nM	33.3 nM	40.6 nM
